Source: the RNAGym collection of RNA variant scans (doi:10.7554/elife.90254)

B1: LINE1-mini (parent)
chain: GGCAGAGCUCAACACAGCGUGGCAAAGUGGCUGUGGCUAGACUGCC

Variants of: B1
Assay: self-cleavage, relative activity (ratio to wild type); higher = more cleavage; in vitro, sequencing; the parent is a self-cleaving ribozyme

Row | Variant | self-cleavage
1 | C8G C45G | 0.08
2 | C8G C45U | 0.06
3 | C8G C45A | 0.08
4 | C8G A26G | 0.07
5 | C8G A26C | 0.14
6 | C8G A26U | 0.11
7 | C8G C46A | 0.05
8 | C8G C46U | 0.09
9 | C8G C46G | 0.11
10 | C8G G17C | 0.04
11 | C8G G17U | 0.07
12 | C8G G17A | 0.08
13 | C8G G21C | 0.06
14 | C8G G21A | 0.32
15 | C8A G44A | 0.45
16 | C8A G44C | 0.23
17 | C8A G44U | 0.43
18 | C8A C18A | 0.37
19 | C8A C18U | 0.27
20 | C8A C18G | 0.15
21 | C8A G30A | 0.42
22 | C8A G30C | 0.26
23 | C8A G30U | 0.59
24 | C8A C45U | 0.32

Row | Variant | self-cleavage
25 | C8A C45A | 0.7
26 | C8A C45G | 0.28
27 | C8G A25C | 0.11
28 | C8G A25U | 0.26
29 | C8G A25G | 0.1
30 | C8A C15G | 0.22
31 | C8A C15U | 0.23
32 | C8A C15A | 0.37
33 | C8A C13A | 0.67
34 | C8A C13G | 0.36
35 | C8A C13U | 0.9
36 | C8A C46A | 0.35
37 | C8A C46U | 0.43
38 | C8A C46G | 0.33
39 | C8G | 0.13
40 | C8G A11G | 0.03
41 | C8G A11C | 0.02
42 | C8G A11U | 0.03
43 | C8A A26C | 0.26
44 | C8A A26G | 0.21
45 | C8A A26U | 0.3
46 | C8G A16U | 0.06
47 | C8G A16G | 0.11
48 | C8G A16C | 0.11

Row | Variant | self-cleavage
49 | C8A G21A | 0.63
50 | C8A G21C | 0.21
51 | C8A G21U | 0.23
52 | C8G C13G | 0.04
53 | C8G C13U | 0.18
54 | C8G C13A | 0.11
55 | C8A U38A | 0.26
56 | C8A U38C | 0.2
57 | C8A U38G | 0.07
58 | C8A C23U | 0.27
59 | C8A C23G | 0.22
60 | C8A C23A | 0.25
61 | C8A G27U | 0.16
62 | C8A G27A | 0.17
63 | C8A G27C | 0.12
64 | C8G A39G | 0.06
65 | C8G A39C | 0.17
66 | C8G A39U | 0.04
67 | C8G G19U | 0.04
68 | C8G G19A | 0.15
69 | C8G G19C | 0.05
70 | C8G A41G | 0.13
71 | C8G A41U | 0.25
72 | C8G A41C | 0.14

Row | Variant | self-cleavage
73 | C8A A41U | 0.48
74 | C8A A41C | 0.36
75 | C8A A41G | 0.29
76 | C8A U20G | 0.15
77 | C8A U20A | 0.14
78 | C8A U20C | 0.15
79 | C8A U43C | 0.17
80 | C8A U43G | 0.11
81 | C8A U43A | 0.14
82 | C8G C18G | 0.08
83 | C8G C18A | 0.04
84 | C8G C18U | 0.1
85 | C8G C23G | 0.08
86 | C8G C23A | 0.1
87 | C8G C23U | 0.1
88 | C8A C42G | 0.19
89 | C8A C42U | 0.24
90 | C8A C42A | 0.29
91 | C8A U9G | 0.03
92 | C8A U9C | 0.14
93 | C8A U9A | 0.24
94 | C8A G35A | 0.42
95 | C8A G35C | 0.16
96 | C8A G35U | 0.44

Row | Variant | self-cleavage
97 | C8A A24G | 0.38
98 | C8A A24U | 0.34
99 | C8A U32C | 0.23
100 | C8A U32G | 0.45
101 | C8A U32A | 0.16
102 | C8G C10A | 0.03
103 | C8G C10U | 0.06
104 | C8G C10G | 0.02
105 | C8A A25G | 0.23
106 | C8A A25U | 0.36
107 | C8A A25C | 0.45
108 | C8G C42A | 0.05
109 | C8G C42G | 0.06
110 | C8G C42U | 0.09
111 | C8G C15A | 0.11
112 | C8G C15U | 0.1
113 | C8G C15G | 0.05
114 | C8A C10G | 0.02
115 | C8A C10U | 0.08
116 | C8A C10A | 0.04
117 | C8A G29C | 0.14
118 | C8A G29A | 0.26
119 | C8A G29U | 0.43
120 | C8G C37G | 0.09

Row | Variant | self-cleavage
121 | C8G C37U | 0.05
122 | C8G C37A | 0.04
123 | C8A U34A | 0.25
124 | C8A U34C | 0.26
125 | C8A U34G | 0.34
126 | C8G A24C | 0.09
127 | C8G A24G | 0.15
128 | C8G A24U | 0.3
129 | C8A G40A | 0.27
130 | C8A G40C | 0.22
131 | C8A G40U | 0.34
132 | C8A C37U | 0.17
133 | C8A C37A | 0.12
134 | C8A C37G | 0.1
135 | C8A G36A | 0.65
136 | C8A G36C | 0.29
137 | C8A G36U | 0.22
138 | C8G A14U | 0.08
139 | C8G A14G | 0.08
140 | C8G A14C | 0.11
141 | C8A G22A | 0.18
142 | C8A G22C | 0.17
143 | C8A G22U | 0.24
144 | C8G C31U | 0.11

Row | Variant | self-cleavage
145 | C8G C31G | 0.05
146 | C8G C31A | 0.06
147 | C8A A39G | 0.08
148 | C8A A39C | 0.32
149 | C8A A39U | 0.45
150 | C8A G33A | 0.16
151 | C8A G33C | 0.28
152 | C8A G33U | 0.18
153 | C8A U28C | 0.25
154 | C8A U28A | 0.17
155 | C8A U28G | 0.08
156 | C8A C31U | 0.21
157 | C8A C31A | 0.36
158 | C8A C31G | 0.15
159 | C8G A12U | 0.13
160 | C8G A12C | 0.02
161 | C8G A12G | 0.03
162 | C8A G17A | 0.3
163 | C8A G17U | 0.27
164 | C8A G17C | 0.22
165 | C8A G19C | 0.1
166 | C8A G19U | 0.11
167 | C8A G19A | 0.38
